Like-named read-outs stand apart in the source and are kept apart here.
B1: GST-Rho5 (enzyme)
chain: MTTELRRKLVIVGDGACGKTCLLIVFSKGTFPEVYVPTVFENYVADVEVDGRHIELALWDTAGQEDYDRLRPLSYPDSHVVLICFSVDAPESLDNVQEKWISEVLHFCSNLPILLVGCKVDLRNDPKTIEELSKTSQKPITFEEGQVVAQKIGAYKYLECSAKLNEGVNEVFETAARASMLKFKPASVPKTKKKKHCILL
B2: GST-Rho1 (enzyme)
chain: MATELRRKLVIVGDGACGKTCLLIVFSKGTFPEVYVPTVFENYVADVEVDGRHVELALWDTAGQEDYDRLRPLSYPDSHVILICFAVDSPDSLDNVQEKWISEVLHFCSSLPILLVACKADLRNDPKIIEELSKTNQHPVTTEEGQAVAQKIGAYKYLECSAKTNEGVREVFESATRAAMLKHKPKVKPSSGTKKKKRCILL
B3: GST-Rho4 (enzyme)
chain: MSAFKKSGSKSETSKKLVVVGDGGCGKTCLLIVFSSGTFPERYVPTVFENYITDITYGPNSKVIELALWDTAGQEEYDRLRPLSYPNSNVILLCFSIDCPASLNNVTEKWYPEVQHFCPRTPIVLVGLKADLRKDRNATEVLRTQGLTPVTYQQAQSVALSMNAPYVECSAKENTGVNEVFQLAVGLTIKKSFSFSKKSCVIL
B4: hexahistidine (6His)-tagged Gef3 (natural protein)
chain: MSNPRMFQSRGKRVVSDSLPIANSTHTLEDTLKLRPDWTIALSQHETETRSTRTSCSTTTESTIAMRSKQKAIISVLEEFRDSEAAYVHDLHVAQRYYADRLSDRVKKSEWKDVFEIFLVLCKQASLFEIEMHKSLNDEINYILDDQDACLKPKPSVAQLFLSWLPKLSAVYGRYCVIQENIGKKVEKWMKNSSISEYLQECDSMAKIESNSWNLDSFLVKPVQRFLKYPLLLNQLYRSASLGIISDYVLLGEACHKSEIASQRMNELKRRRDIIITALDSVSNSQEVLLLSTDSIDKKIAKLQNSTNIFYVPEHEPILAFVHQLSSSYTNLLNLRSAICDWLKFSRYHYLKFFTFVEAYSVFCKDTKSADKWALISVALDNIAKGAVLRLTEQCQTSVLRPISNGILFFRNPLCVTDVWIKKATAFSKRRQSQVFEEDLESFPLLSNCLLEELPLFLEMARNVTDECILAFAQIQATFYDTIQKVLEPVVAKFNLTDHQDIPSIESIMDFTSLRSSMESSPKSK
B5: GST-Rho2 (enzyme)
chain: MLQSQPIRRKLVVVGDGACGKTSLLSVFTLGYFPTEYVPTVFENYVSDCRVDGKSVQLALWDTAGQEEYERLRPMSYAKAHIILVGFAIDSPDSLENVSTKWIEEINTLCPNVPFILVGMKADLRSDPVAIEEMRRRNQNFVKSQQAELVAQRIGARKYMECSSLTGDGVDDVFEAATRAALTVRDSENDKSSTKCCIIS

What was measured:
Test in all cases: pull-down
3FLAG-Gef3 [1] = molecular target: T1, 3FLAG-Gef3 (S. pombe, UniProt O59679 1-525)
T1 sequence: B4 chain

[2] = molecular target: B4
3FLAG-Gef3 [3] = molecular target: T1, 3FLAG-Gef3; remark: listed apart in the source
GST-Rho4 = molecular target: B3

Binder	binding result (3FLAG-Gef3 [1])	binding result [2]	binding result (3FLAG-Gef3 [3])	fold more pulled down than by the GST control (GST-Rho4)
B1	binds	binds	–	–
B2	–	binds	binds	–
B3	–	–	binds	–
B4	–	–	–	~35 times
B5	binds	–	–	–

Source: publication PMC4294672 (Molecular Biology of the Cell, 2015)
